# T1: human FcγRIIb (human, UniProt P31994 43-217, limits assumed)
# T1 construct: also called FcyRIfb; FcγIIB
# T1 sequence: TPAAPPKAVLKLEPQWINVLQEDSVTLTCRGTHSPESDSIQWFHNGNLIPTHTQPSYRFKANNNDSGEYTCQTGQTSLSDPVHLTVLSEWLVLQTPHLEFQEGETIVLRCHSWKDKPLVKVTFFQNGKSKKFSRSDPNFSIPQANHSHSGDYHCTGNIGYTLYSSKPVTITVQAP
# T2: human FcγRIIa type H (human, UniProt P12318 36-217)
# T2 construct: also called FcyRIIaH; FcγRIIa(H)
# T2 sequence: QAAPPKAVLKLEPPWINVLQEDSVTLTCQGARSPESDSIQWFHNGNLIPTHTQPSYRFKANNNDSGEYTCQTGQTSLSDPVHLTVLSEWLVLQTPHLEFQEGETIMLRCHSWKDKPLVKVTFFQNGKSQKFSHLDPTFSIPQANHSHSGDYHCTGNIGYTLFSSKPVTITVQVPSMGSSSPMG
# Columns and labels:
# Experiment in all cases: SPR (Biacore), FcγR over captured antibody; binding amount relative to IL6R-BF648/IL6R-L x100
# human FcγRIIb = target: T1, human FcγRIIb
# human FcγRIIa type H = target: T2, human FcγRIIa type H
# human FcγRIIIa type V = target: T3, human FcγRIIIa type V (human, UniProt P08637 17-208, limits assumed)
# T3 construct: also called FcyRIIIa; FcγRIIIaV
# T3 sequence (P08637 other isoform, or with tags, fused parts or gaps limits assumed): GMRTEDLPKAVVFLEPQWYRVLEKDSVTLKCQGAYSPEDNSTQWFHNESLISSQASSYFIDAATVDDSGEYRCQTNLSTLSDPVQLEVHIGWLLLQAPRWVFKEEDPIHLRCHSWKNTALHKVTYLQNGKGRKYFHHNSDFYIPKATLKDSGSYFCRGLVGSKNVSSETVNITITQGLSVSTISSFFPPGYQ
# human FcγRIa = target: T4, human FcγRIa (human, UniProt P12314 16-292, limits assumed)
# T4 construct: also called FcyRIa; CD64
# T4 sequence (P12314 16-292 limits assumed): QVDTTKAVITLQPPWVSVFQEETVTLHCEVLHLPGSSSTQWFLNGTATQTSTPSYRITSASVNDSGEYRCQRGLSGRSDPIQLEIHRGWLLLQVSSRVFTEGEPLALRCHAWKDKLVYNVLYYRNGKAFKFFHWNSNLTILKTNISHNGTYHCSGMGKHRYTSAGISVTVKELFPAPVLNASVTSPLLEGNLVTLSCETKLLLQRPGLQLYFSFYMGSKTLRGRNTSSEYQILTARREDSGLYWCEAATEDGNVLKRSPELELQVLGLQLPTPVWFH
relative binding (human FcγRIIb),relative binding (human FcγRIIa type H),relative binding (human FcγRIIIa type V),relative binding (human FcγRIa),Binder
116 % of IL6R-BF648/IL6R-L,110 % of IL6R-BF648/IL6R-L,127 % of IL6R-BF648/IL6R-L,127 % of IL6R-BF648/IL6R-L,"IL6R-BP106/IL6R-L (antibody, human IgG1, name in EU numbering) heavy: QVQLQESGPGLVKPSETLSLTCAVSGHSISHDHAWSWVRQPPGEGLEWIGFISYSGITNYNPSLQGRVTISRDNSKNTLYLQMNSLRAEDTAVYYCARSLARTTAMDYWGEGTLVTVSSASTKGPSVFPLAPSSKSTSGGTAALGCLVKDYFPEPVTVSWNSGALTSGVHTFPAVLQSSGLYSLSSVVTVPSSSLGTQTYICNVNHKPSNTKVDKKVEPKSCDKTHTCPPCPAPELLGGDSVFLFPPKPKDTLMISRTPEVTCVVVDVSDEDPEVKFNWYVDGVEVHNAKTKPREEQYNSTYRVVSVLTVLHQDWLNGKEYKCKVSNKALPAPIEKTISKAKGQPREPQVYTLPPSRDELTKNQVSLTCLVKGFYPSDIAVEWESNGQPENNYKTTPPVLDSDGSFFLYSKLTVDKSRWQQGNVFSCSVMHEALHNHYTQESLSLSP light: DIQMTQSPSSLSASVGDRVTITCRASQDISSYLNWYQQKPGKAPKLLIYYTSRLHSGVPSRFSGSGSGTDFTFTISSLQPEDIATYYCQQGNTLPYTFGQGTKVEIK"
104 % of IL6R-BF648/IL6R-L,128 % of IL6R-BF648/IL6R-L,144 % of IL6R-BF648/IL6R-L,101 % of IL6R-BF648/IL6R-L,"IL6R-BP118/IL6R-L (antibody, human IgG1, name in EU numbering) heavy: QVQLQESGPGLVKPSETLSLTCAVSGHSISHDHAWSWVRQPPGEGLEWIGFISYSGITNYNPSLQGRVTISRDNSKNTLYLQMNSLRAEDTAVYYCARSLARTTAMDYWGEGTLVTVSSASTKGPSVFPLAPSSKSTSGGTAALGCLVKDYFPEPVTVSWNSGALTSGVHTFPAVLQSSGLYSLSSVVTVPSSSLGTQTYICNVNHKPSNTKVDKKVEPKSCDKTHTCPPCPAPELLGGDSVFLFPPKPKDTLMISRTPEVTCVVVDVSHEDPEVKFNWYVDGVEVHNAKTKPREEQYNSTYRVVSVLTVLHQDWLNGKEYKCKVSNSALPAPIEKTISKAKGQPREPQVYTLPPSRDELTKNQVSLTCLVKGFYPSDIAVEWESNGQPENNYKTTPPVLDSDGSFFLYSKLTVDKSRWQQGNVFSCSVMHEALHNHYTQESLSLSP light: DIQMTQSPSSLSASVGDRVTITCRASQDISSYLNWYQQKPGKAPKLLIYYTSRLHSGVPSRFSGSGSGTDFTFTISSLQPEDIATYYCQQGNTLPYTFGQGTKVEIK"
106 % of IL6R-BF648/IL6R-L,97 % of IL6R-BF648/IL6R-L,102 % of IL6R-BF648/IL6R-L,98 % of IL6R-BF648/IL6R-L,"IL6R-BP142/IL6R-L (antibody, human IgG1, name in EU numbering) heavy: QVQLQESGPGLVKPSETLSLTCAVSGHSISHDHAWSWVRQPPGEGLEWIGFISYSGITNYNPSLQGRVTISRDNSKNTLYLQMNSLRAEDTAVYYCARSLARTTAMDYWGEGTLVTVSSASTKGPSVFPLAPSSKSTSGGTAALGCLVKDYFPEPVTVSWNSGALTSGVHTFPAVLQSSGLYSLSSVVTVPSSSLGTQTYICNVNHKPSNTKVDKKVEPKSCDKTHTCPPCPAPELLGGDSVFLFPPKPKDTLMISRTPEVTCVVVDVSHEDPEVKFNWYVDGVEVHNAKTKPREEQYNSTYRVVSVLTVLHQDWLNGKEYKCKVSNNALPAPIEKTISKAKGQPREPQVYTLPPSRDELTKNQVSLTCLVKGFYPSDIAVEWESNGQPENNYKTTPPVLDSDGSFFLYSKLTVDKSRWQQGNVFSCSVMHEALHNHYTQESLSLSP light: DIQMTQSPSSLSASVGDRVTITCRASQDISSYLNWYQQKPGKAPKLLIYYTSRLHSGVPSRFSGSGSGTDFTFTISSLQPEDIATYYCQQGNTLPYTFGQGTKVEIK"
118 % of IL6R-BF648/IL6R-L,114 % of IL6R-BF648/IL6R-L,129 % of IL6R-BF648/IL6R-L,123 % of IL6R-BF648/IL6R-L,"IL6R-BP107/IL6R-L (antibody, human IgG1, name in EU numbering) heavy: QVQLQESGPGLVKPSETLSLTCAVSGHSISHDHAWSWVRQPPGEGLEWIGFISYSGITNYNPSLQGRVTISRDNSKNTLYLQMNSLRAEDTAVYYCARSLARTTAMDYWGEGTLVTVSSASTKGPSVFPLAPSSKSTSGGTAALGCLVKDYFPEPVTVSWNSGALTSGVHTFPAVLQSSGLYSLSSVVTVPSSSLGTQTYICNVNHKPSNTKVDKKVEPKSCDKTHTCPPCPAPELLGGDSVFLFPPKPKDTLMISRTPEVTCVVVDVSEEDPEVKFNWYVDGVEVHNAKTKPREEQYNSTYRVVSVLTVLHQDWLNGKEYKCKVSNKALPAPIEKTISKAKGQPREPQVYTLPPSRDELTKNQVSLTCLVKGFYPSDIAVEWESNGQPENNYKTTPPVLDSDGSFFLYSKLTVDKSRWQQGNVFSCSVMHEALHNHYTQESLSLSP light: DIQMTQSPSSLSASVGDRVTITCRASQDISSYLNWYQQKPGKAPKLLIYYTSRLHSGVPSRFSGSGSGTDFTFTISSLQPEDIATYYCQQGNTLPYTFGQGTKVEIK"
110 % of IL6R-BF648/IL6R-L,133 % of IL6R-BF648/IL6R-L,145 % of IL6R-BF648/IL6R-L,117 % of IL6R-BF648/IL6R-L,"IL6R-BP119/IL6R-L (antibody, human IgG1, name in EU numbering) heavy: QVQLQESGPGLVKPSETLSLTCAVSGHSISHDHAWSWVRQPPGEGLEWIGFISYSGITNYNPSLQGRVTISRDNSKNTLYLQMNSLRAEDTAVYYCARSLARTTAMDYWGEGTLVTVSSASTKGPSVFPLAPSSKSTSGGTAALGCLVKDYFPEPVTVSWNSGALTSGVHTFPAVLQSSGLYSLSSVVTVPSSSLGTQTYICNVNHKPSNTKVDKKVEPKSCDKTHTCPPCPAPELLGGDSVFLFPPKPKDTLMISRTPEVTCVVVDVSHEDPEVKFNWYVDGVEVHNAKTKPREEQYNSTYRVVSVLTVLHQDWLNGKEYKCKVSNMALPAPIEKTISKAKGQPREPQVYTLPPSRDELTKNQVSLTCLVKGFYPSDIAVEWESNGQPENNYKTTPPVLDSDGSFFLYSKLTVDKSRWQQGNVFSCSVMHEALHNHYTQESLSLSP light: DIQMTQSPSSLSASVGDRVTITCRASQDISSYLNWYQQKPGKAPKLLIYYTSRLHSGVPSRFSGSGSGTDFTFTISSLQPEDIATYYCQQGNTLPYTFGQGTKVEIK"
119 % of IL6R-BF648/IL6R-L,103 % of IL6R-BF648/IL6R-L,102 % of IL6R-BF648/IL6R-L,117 % of IL6R-BF648/IL6R-L,"IL6R-BP136/IL6R-L (antibody, human IgG1, name in EU numbering) heavy: QVQLQESGPGLVKPSETLSLTCAVSGHSISHDHAWSWVRQPPGEGLEWIGFISYSGITNYNPSLQGRVTISRDNSKNTLYLQMNSLRAEDTAVYYCARSLARTTAMDYWGEGTLVTVSSASTKGPSVFPLAPSSKSTSGGTAALGCLVKDYFPEPVTVSWNSGALTSGVHTFPAVLQSSGLYSLSSVVTVPSSSLGTQTYICNVNHKPSNTKVDKKVEPKSCDKTHTCPPCPAPELLGGDSVFLFPPKPKDTLMISRTPEVTCVVVDVSHEDPEVKFNWYVDGVEVHNAKTKPREEQYNSTYRVVSVLTVLHQDWLNGKEYKCKVSNAALPAPIEKTISKAKGQPREPQVYTLPPSRDELTKNQVSLTCLVKGFYPSDIAVEWESNGQPENNYKTTPPVLDSDGSFFLYSKLTVDKSRWQQGNVFSCSVMHEALHNHYTQESLSLSP light: DIQMTQSPSSLSASVGDRVTITCRASQDISSYLNWYQQKPGKAPKLLIYYTSRLHSGVPSRFSGSGSGTDFTFTISSLQPEDIATYYCQQGNTLPYTFGQGTKVEIK"
108 % of IL6R-BF648/IL6R-L,110 % of IL6R-BF648/IL6R-L,114 % of IL6R-BF648/IL6R-L,110 % of IL6R-BF648/IL6R-L,"IL6R-BP116/IL6R-L (antibody, human IgG1, name in EU numbering) heavy: QVQLQESGPGLVKPSETLSLTCAVSGHSISHDHAWSWVRQPPGEGLEWIGFISYSGITNYNPSLQGRVTISRDNSKNTLYLQMNSLRAEDTAVYYCARSLARTTAMDYWGEGTLVTVSSASTKGPSVFPLAPSSKSTSGGTAALGCLVKDYFPEPVTVSWNSGALTSGVHTFPAVLQSSGLYSLSSVVTVPSSSLGTQTYICNVNHKPSNTKVDKKVEPKSCDKTHTCPPCPAPELLGGDSVFLFPPKPKDTLMISRTPEVTCVVVDVSHEDPEVKFNWYVDGVEVHNAKTKPREEQYNSTYRVVSVLTVLHQDWLNGKEYKCKVSNTALPAPIEKTISKAKGQPREPQVYTLPPSRDELTKNQVSLTCLVKGFYPSDIAVEWESNGQPENNYKTTPPVLDSDGSFFLYSKLTVDKSRWQQGNVFSCSVMHEALHNHYTQESLSLSP light: DIQMTQSPSSLSASVGDRVTITCRASQDISSYLNWYQQKPGKAPKLLIYYTSRLHSGVPSRFSGSGSGTDFTFTISSLQPEDIATYYCQQGNTLPYTFGQGTKVEIK"
113 % of IL6R-BF648/IL6R-L,135 % of IL6R-BF648/IL6R-L,157 % of IL6R-BF648/IL6R-L,118 % of IL6R-BF648/IL6R-L,"IL6R-BP121/IL6R-L (antibody, human IgG1, name in EU numbering) heavy: QVQLQESGPGLVKPSETLSLTCAVSGHSISHDHAWSWVRQPPGEGLEWIGFISYSGITNYNPSLQGRVTISRDNSKNTLYLQMNSLRAEDTAVYYCARSLARTTAMDYWGEGTLVTVSSASTKGPSVFPLAPSSKSTSGGTAALGCLVKDYFPEPVTVSWNSGALTSGVHTFPAVLQSSGLYSLSSVVTVPSSSLGTQTYICNVNHKPSNTKVDKKVEPKSCDKTHTCPPCPAPELLGGDSVFLFPPKPKDTLMISRTPEVTCVVVDVSHEDPEVKFNWYVDGVEVHNAKTKPREEQYNSTYRVVSVLTVLHQDWLNGKEYKCKVSNQALPAPIEKTISKAKGQPREPQVYTLPPSRDELTKNQVSLTCLVKGFYPSDIAVEWESNGQPENNYKTTPPVLDSDGSFFLYSKLTVDKSRWQQGNVFSCSVMHEALHNHYTQESLSLSP light: DIQMTQSPSSLSASVGDRVTITCRASQDISSYLNWYQQKPGKAPKLLIYYTSRLHSGVPSRFSGSGSGTDFTFTISSLQPEDIATYYCQQGNTLPYTFGQGTKVEIK"
